Results reported in patent publication US20150239980A1 (NEOTOPE BOSCIENCES, published 2015).
Changes are numbered by the printed parent chain.

T1: recombinant hMCAM-His (human, UniProt P43121 24-559)
T1 construct: not shown: His tag
T1 chain: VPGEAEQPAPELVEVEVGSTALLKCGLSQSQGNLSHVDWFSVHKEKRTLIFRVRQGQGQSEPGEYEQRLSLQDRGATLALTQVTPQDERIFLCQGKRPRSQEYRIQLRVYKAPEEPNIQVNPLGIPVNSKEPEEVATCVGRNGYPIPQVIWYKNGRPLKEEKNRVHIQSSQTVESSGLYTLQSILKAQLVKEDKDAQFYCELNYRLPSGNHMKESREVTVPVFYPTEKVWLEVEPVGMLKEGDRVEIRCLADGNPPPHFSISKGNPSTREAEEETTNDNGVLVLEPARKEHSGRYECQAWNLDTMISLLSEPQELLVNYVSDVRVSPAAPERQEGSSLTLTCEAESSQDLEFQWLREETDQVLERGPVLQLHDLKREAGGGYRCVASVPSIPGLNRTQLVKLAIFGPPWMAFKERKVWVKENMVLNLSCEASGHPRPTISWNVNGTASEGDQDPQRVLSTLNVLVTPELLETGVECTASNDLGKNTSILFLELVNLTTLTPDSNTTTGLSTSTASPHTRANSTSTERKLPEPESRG

T2: human MCAM (melanoma cell adhesion molecule) expressed on transfected CHO cells (human, UniProt P43121 24-646)
T2 construct: also called hMCAM; CD146
T2 chain: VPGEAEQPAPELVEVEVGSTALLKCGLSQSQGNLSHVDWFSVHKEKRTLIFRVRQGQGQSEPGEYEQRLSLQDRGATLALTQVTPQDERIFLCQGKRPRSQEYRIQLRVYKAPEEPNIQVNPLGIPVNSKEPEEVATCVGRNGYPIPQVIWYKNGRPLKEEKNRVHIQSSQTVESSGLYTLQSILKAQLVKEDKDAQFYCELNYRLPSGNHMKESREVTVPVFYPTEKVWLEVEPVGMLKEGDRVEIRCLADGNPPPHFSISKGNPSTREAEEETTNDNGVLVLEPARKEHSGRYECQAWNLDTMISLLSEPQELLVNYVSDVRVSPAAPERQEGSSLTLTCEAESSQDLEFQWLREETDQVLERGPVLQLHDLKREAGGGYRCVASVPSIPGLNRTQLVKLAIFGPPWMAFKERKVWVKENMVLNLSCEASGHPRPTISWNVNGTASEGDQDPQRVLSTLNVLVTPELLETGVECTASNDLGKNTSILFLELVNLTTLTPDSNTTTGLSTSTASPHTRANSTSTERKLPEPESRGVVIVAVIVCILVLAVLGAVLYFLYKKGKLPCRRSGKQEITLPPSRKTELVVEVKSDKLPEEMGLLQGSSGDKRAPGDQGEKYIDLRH

B1: h1749VH1 + h1749VL2 (antibody, human IgG1, V domains shown)
VH: EVQLVESGGGLVQPGGSLRLSCAASGFTFSSYIMSWVRQAPGKGLEWVATISSGGSSTYYPDSVKGRFTISRDNAKNSLYLQMNSLRAEDTAVYYCTRDDDYDVKVFAYWGQGTMVTVSS
VL: DIVMTQSPDSLAVSLGERATINCKSSRSLLNSRIRKNYLAWYQQKPGQPPKLLIYWASTRESGVPDRFTGSGSGTDFTLTISSLQAEDVAVYYCKQSYNLLTFGQGTKVEIK
B2: h1749VH2 + h1749VL1 (antibody, human IgG1, V domains shown)
VH: B1 VH with G44R
VL: B1 VL with T69S
notes: also called h1749VH2VL1
B3: h2107_VH4 + h2107_VL2 (antibody, human IgG1, V domains shown)
VH: QVTLKESGPVLVKPTETLTLTCTVSGFSLTSSGVSWVRQPPGKALEWIAAISSGGSTYYNSAFKSRLTISPDTSKSQVVLTMTNMDPVDTATYYCARHRPFYFDYWGQGTLVTVSS
VL: DIQMTQSPSSLSASVGDRVTITCKGSQNIYKSLAWFQLKPGKVPKLLIYDANSLQTGIPSRFSGSGSGTDFTLTISSLQPEDVATYYCQQYYSGYTFGGGTKVEIK
B4: h2107_VH6 + h2107_VL2 (antibody, human IgG1, V domains shown)
VH: B3 VH with S32N, G33A, P71R
VL: B3 VL
B5: chimeric 1749 TM (antibody, V domains shown)
VH: DVKLVESGGDLVKPGGSLKLSCAASGFTFSSYIMSWVRQTPEKRLEWVATISSGGSSTYYPDSVKGRFTISRDNAKNTLYLQMSSLKSEDTAMYYCTRDDDYDVKVFAYWGQGTLVTVSA
VL: DIVMSQSPSSLAVSAGEKVTMNCKSSRSLLNSRIRKNYLAWYQQKPGQSPKLLIYWASTRESGVPDRFTGSGSGTDFTLTISSVQAEDLAVYYCKQSYNLLTFGAGTKLELK

Legend:
recombinant hMCAM-His [1] = target: T1, recombinant hMCAM-His; assay: summary of ForteBio and competitive ELISA on hMCAM-His; vs rodent 1749
Experimental: (§1) ELISA plates were coated with recombinant hMCAM-His, and blocked with casein buffer to prevent non-specific binding. Biotinylated rodent or chimeric antibody was added at a subsaturating concentration, in the presence or absence of 3× increasing concentrations of unlabeled competitor (humanized antibody, rodent, or chimeric). After washing to remove unbound antibody, streptavidin HRP was added to allow detection of the biotinylated antibody. The ELISA was developed with TMB substrate and the OD450 was measured. The IC50 of the unlabeled competitor was determined using the GraphPad Prism5 software.
(§2) The affinities were measured using the ForteBio Octet Red. Anti-human Fc sensors were used to capture the humanized antibodies, and several concentrations of hMCAMHis analyte were used to determine the affinity using a 1:1 fitting model.

recombinant hMCAM-His [2] = target: T1, recombinant hMCAM-His; assay: ForteBio Octet Red, hMCAM-His analyte; Forte column 1; vs rodent 1749
Experimental: as §2

[3] = target: T2, human MCAM (melanoma cell adhesion …); assay: laminin/FACS on hMCAM CHO cells, competitor laminin 411; Expt#1; vs rodent 1749
Experimental: (§3) Following incubation for 30-45 minutes, the cells were washed and anti-laminin conjugated to AF650 (NovusBio) was added to detect the bound laminin. The cells were run on a flow cytometer to measure the laminin binding signal.

[4] = target: T2, human MCAM (melanoma cell adhesion …); assay: laminin/FACS on hMCAM CHO cells, competitor laminin 411; Expt#2; vs rodent 1749
Experimental: as §3

[5] = target: T2, human MCAM (melanoma cell adhesion …); assay: summary of laminin blocking assay on hMCAM CHO cells, competitor laminin 411; vs rodent 1749
Experimental: as §3

recombinant hMCAM-His [6] = target: T1, recombinant hMCAM-His; assay: competitive ELISA on hMCAM-His, competitor biotinylated rodent or chimeric 1749; vs rodent 1749
recombinant hMCAM-His [7] = target: T1, recombinant hMCAM-His; assay: ForteBio Octet Red, hMCAM-His analyte; Expt. #1; vs rodent 2107
Experimental: as §2

recombinant hMCAM-His [8] = target: T1, recombinant hMCAM-His; assay: competitive ELISA on hMCAM-His, competitor biotinylated rodent or chimeric 2107; Expt. #1; vs rodent 2107
Experimental: as §1

recombinant hMCAM-His [9] = target: T1, recombinant hMCAM-His; assay: ForteBio Octet Red, hMCAM-His analyte; Forte column 1; vs rodent 2107
Experimental: as §2

recombinant hMCAM-His [10] = target: T1, recombinant hMCAM-His; assay: ForteBio Octet Red, hMCAM-His analyte; Forte column 2; vs rodent 2107
Experimental: as §2

[11] = target: T2, human MCAM (melanoma cell adhesion …); assay: laminin/FACS on hMCAM CHO cells, competitor laminin 411; Expt#1; vs rodent 2107
Experimental: as §3

recombinant hMCAM-His [12] = target: T1, recombinant hMCAM-His; assay: competitive ELISA on hMCAM-His, competitor biotinylated rodent or chimeric 2107; vs rodent 2107
Experimental: as §1

[13] = target: T2, human MCAM (melanoma cell adhesion …); assay: laminin/FACS on hMCAM CHO cells, competitor laminin 411; Expt#2; reference row with 1.0 is chimeric 2107
Experimental: as §3

recombinant hMCAM-His [14] = target: T1, recombinant hMCAM-His; assay: competitive ELISA on hMCAM-His, competitor biotinylated rodent or chimeric 1749; Expt. #2; vs rodent 1749
Experimental: as §1

fold reduction in affinity compared to the rodent (recombinant hMCAM-His [1])	fold over rodent (Forte affinity) (recombinant hMCAM-His [2])	fold over rodent (blocking, laminin/FACS) [3]	fold over rodent (blocking, laminin/FACS) [4]	fold reduction in potency compared to the rodent [5]	fold over rodent (competitive ELISA) (recombinant hMCAM-His [6])	further results	Binder
< 2 fold	2.5 fold	1.1 fold	1.2 fold	< 2 fold	1 fold	–	B1
< 2 fold	1.2 fold	1.5 fold	1.8 fold	< 2 fold	1 fold	–	B2
–	–	–	–	–	–	fold over rodent (Forte affinity) (recombinant hMCAM-His [7]): 5.59 fold; fold over rodent (competitive ELISA) (recombinant hMCAM-His [8]): 11.7 fold	B3
–	–	–	–	–	–	fold over rodent (Forte affinity) (recombinant hMCAM-His [9]): 5.2 fold; fold over rodent (Forte affinity) (recombinant hMCAM-His [10]): 5.5 fold; fold over rodent (blocking, laminin/FACS) [11]: 4.8 fold; fold over rodent (competitive ELISA) (recombinant hMCAM-His [12]): 3.5 fold; fold over rodent (blocking, laminin/FACS) [13]: 2.3 fold	B4
–	–	–	–	–	–	fold over rodent (competitive ELISA) (recombinant hMCAM-His [14]): 1.07 fold	B5
